The target of experiment [1] is T1, biotinylated ADDLs (bADDLs), oligomers prepared from N-terminal biotinylated amyloid β1-42 (N-terminal biotin).
T1 construct: also called high molecular weight 10% bADDL
Briefly: titration ELISA on streptavidin-captured 10% biotinylated ADDL.

Experiment [2] has as its target T1, biotinylated ADDLs (bADDLs), oligomers …. Kind of experiment: BIACORE, bADDL as antigen, IgG1 #1.
For experiment [3] the target is unchanged. Kind of experiment: BIACORE, bADDL as antigen, Fab.
Experiment [4] shares this target. Briefly: BIACORE, bADDL as antigen, IgG1 #2.
For experiment [5], the target named is ADDL fibril preparation (Aβ1-42 fibrils made in 10 mM hydrochloric acid). Briefly: solution equilibrium titration; free IgG by ELISA; GraFit.
Experiment [6] deals with T2, SEC Peak 1 fraction of ADDLs (large aggregates, >50 kDa).
T2 construct: Size exclusion fraction of synthetic ADDLs; monomer, trimer, tetramer and 12-24 mers on SDS-PAGE
Kind of experiment: sandwich ELISA with polyclonal M90 as capture antibody; signal on SEC Peak 1 divided by signal on SEC Peak 2 of ADDLs.

Experiment [7] concerns the target T3, Aβ-derived diffusible ligands (synthetic ADDLs), soluble oligomers of amyloid β1-42.
T3 construct: number of copies varies (trimer, tetramer, 12-24 mer)
Briefly: solution equilibrium titration; free IgG by ELISA; GraFit.

Experiment [8] addresses T4, higher molecular weight oligomers of the ADDL preparation.
T4 construct: also called higher molecular weight material (12-24 mer)
Kind of experiment: western immunoblot of ADDLs after SDS-PAGE (column DENATURED SPECIES IDENTIFIED: HMW ADDLs).

The values that follow come from US20110159013A1 (MERCK, published 2011).

B1: humanized 26D6, CDR grafted, IgG1/kappa (antibody)
heavy: not shown
light: DVVMTQSPLSLPVTPGEPASISCRASQSIVHSNGNTYLEWYLQKPGQSPQLLIYRVSNRFSGVPDRFSGSGSGTDFTLKISRVEAEDVGVYYCFQVTHVPLTFGQGTKLEIKRTVAAPSVFIFPPSDEQLKSGTASVVCLLNNFYPREAKVQWKVDNALQSGNSQESVTEQDSKDSTYSLSSTLTLSKADYEKHKVYACEVTHQGLSSPVTKSFNRGEC
In the case of B1, the binding result in experiment [1] is recorded as “binds”.

B2: humanized 26D6, CDR grafted, IgG2m4/kappa (antibody)
heavy: QVTLKESGPTLVKPTQTLTLTCTFSGFSLSTSGMGVSWIRQPPGKALEWLAHIYWDDDKQYNPSLKSRLTITKDTSKNQVVLTMTNMDPVDTATYYCARRASSSRYDDQFDYWGQGTLVPVSSASTKGPSVFPLAPCSRSTSESTAALGCLVKDYFPEPVTVSWNSGALTSGVHTFPAVLQSSGLYSLSSVVTVTSSNFGTQTYTCNVDHKPSNTKVDKTVERKCCVECPPCPAPPVAGPSVFLFPPKPKDTLMISRTPEVTCVVVDVSQEDPEVQFNWYVDGVEVHNAKTKPREEQFNSTFRVVSVLTVLHQDWLNGKEYKCKVSNKGLPSSIEKTISKTKGQPREPQVYTLPPSREEMTKNQVSLTCLVKGFYPSDIAVEWESNGQPENNYKTTPPMLDSDGSFFLYSKLTVDKSRWQQGNVFSCSVMHEALHNHYTQKSLSLSPGK
light: DVVMTQSPLSLPVTPGEPASISCRASQSIVHSNGNTYLEWYLQKPGQSPQLLIYRVSNRFSGVPDRFSGSGSGTDFTLKISRVEAEDVGVYYCFQVTHVPLTFGQGTKLEIKRTVAAPSVFIFPPSDEQLKSGTASVVCLLNNFYPREAKVQWKVDNALQSGNSQESVTEQDSKDSTYSLSSTLTLSKADYEKHKVYACEVTHQGLSSPVTKSFNRGEC
As for B2, the binding result in experiment [1] was “binds”.

B3: affinity-matured humanized 20C2-1A, IgG1 (humanized A version) (antibody, V domains shown)
VH: QVTLKESGPALVKPTQTLTLTCTFSGFSLSTSGMGVGWIRQPPGKALEWLAHIWWDDDKSYNPSLKSRLTISKDTSKNQVVLTMTNMDPVDTATYYCARRQLGLRSIDAMDYWGQGTTVTVSS
VL: DVVMTQSPLSLPVTPGEPASISCRSSQSILHSNGNTYLEWYLQKPGQSPQLLIYKVSNRFSGVPDRFSGSGSGTDFTLKISRVEAEDVGVYYCFQASRVPLTFGQGTKLEIKR
notes: also called clone SJ-p2-60
The molecule B3 registered a Kd in experiment [2] of 0.075 nM.

B4: humanized 20C2, veneered, HCVR VenA IgG1 with veneered 20C2 LCVR Kappa (antibody, V domains shown)
VH: QVTLKESGPGILKPSQTLSLTCTFSGFSLSTSGMGVGWFRQPPGKGLEWLAHIWWDDDKSYNPSLKSRLTISKDTSKNQVFLTITNMDPVDTATYYCARRQLGLRSIDAMDYWGQGTTVTVSS
VL: DVVMTQSPLSLPVSLGDPASISCRSSQSILHSNGNTYLEWYLQKPGQSPQLLIYKVSNRFSGVPDRFSGSGSGTDFTLKISRVEAEDLGVYYCFQGSLVPLTFGAGTKLELKR
notes: also called 20C2 VenA
In the case of B4, the binding result in experiment [1] is “binds”.

B5: Fab fragment of affinity-matured humanized 20C2-18A (Fab, V domains shown)
VH: QVTLKESGPALVKPTQTLTLTCTFSGFSLSTSGMGVGWIRQPPGKALEWLAHIWWDDDKSYNPSLKSRLTISKDTSKNQVVLTMTNMDPVDTATYYCARRQLGLRSIDAMDYWGQGTTVTVSS
VL: DVVMTQSPLSLPVTPGEPASISCRSSQSILHSNGNTYLEWYLQKPGQSPQLLIYKVSNRFSGVPDRFSGSGSGTDFTLKISRVEAEDVGVYYCMQSSFVPLTFGQGTKLEIKR
For B5, the Kd in experiment [3] amounted to 85 nM.

B6: humanized 4E2, CDR grafted, IgG1/kappa (antibody, V domains shown)
VH: QVTLKESGPALVKPTQTLTLTCTFSGFSLSTSGMGVGWIRQPPGKALEWLAHIWWDDDKYYNPSLKSQLTISKDTSKNQVVLTMTNMDPVDTATYYCARRSINSVVPEDYFDYWGQGTTVTVSS
VL: DVVMTQSPLSLPVTPGEPASISCRSSQSIVHSNGNTYLEWYLQKPGQSPQLLIYKVSNRFSGVPDRFSGSGSGTDFTLKISRVEAEDVGVYYCFQGSHVPLTFGQGTKLEIKR
notes: also called 4E2 (humanized)
B6: the binding result in experiment [1] is “binds”.

B7: humanized 1F6, CDR grafted, IgG1/kappa (antibody, V domains shown)
VH: EVQLVESGGGLVQPGGSLRLSCAASGFTFSSFGMHWVRQAPGKGLEWVAYISSVSSTIYYADTVKGRFTISRDNSKNTLYLQMNSLRAEDTAVYYCARSGYGSSYGYGMDYWGQGTLVTVSS
VL: DVVMTQSPLSLPVTPGEPASISCRSSQSIVHSNGNTYLEWYLQKPGQSPQLLIYKVSNRFSGVPDRFSGSGSGTDFTLKISRVEAEDVGVYYCFQGSHVPLTFGQGTKLEIKR
notes: also called 1F6 (humanized)
For the molecule B7, the binding result in experiment [1] is on record as “binds”.

B8: humanized 3B3, CDR grafted, IgG1/kappa (antibody, V domains shown)
VH: EVQLVESGGGLVQPGGSLRLSCAASGFTFSSFGMHWVRQAPGKGLEWVAYISRGSSTIYYADTVKGRFTISRDNAKNSLYLQMNSLRAEDTAVYYCARGITTALDYWGQGTLVTVSS
VL: DVVMTQSPLSLPVTPGEPASISCRSSQSIVHSNGNTYLEWYLQKPGQSPQLLIYKASNRFSGVPDRFSGSGSGTDFTLKISRVEAEDVGVYYCFQGSHVPPTFGQGTKLEIKR
notes: also called 3B3 (humanized)
For the molecule B8, in experiment [1], the binding result is recorded as “binds”.

B9: affinity-matured humanized 20C2-2A, IgG1 (humanized A version) (antibody, V domains shown)
VH: QVTLKESGPALVKPTQTLTLTCTFSGFSLSTSGMGVGWIRQPPGKALEWLAHIWWDDDKSYNPSLKSRLTISKDTSKNQVVLTMTNMDPVDTATYYCARRQLGLRSIDAMDYWGQGTTVTVSS
VL: DVVMTQSPLSLPVTPGEPASISCRSSQSILHSNGNTYLEWYLQKPGQSPQLLIYKVSNRFSGVPDRFSGSGSGTDFTLKISRVEAEDVGVYYCFQATRVPLTFGQGTKLEIKR
notes: also called clone SJ-p1-18
Consider B9, for which the Kd was found to be 0.015 nM in experiment [2] and 0.0003 nM in experiment [4].

B10: murine anti-ADDL monoclonal antibody 5F10 (antibody, V domains shown)
VH: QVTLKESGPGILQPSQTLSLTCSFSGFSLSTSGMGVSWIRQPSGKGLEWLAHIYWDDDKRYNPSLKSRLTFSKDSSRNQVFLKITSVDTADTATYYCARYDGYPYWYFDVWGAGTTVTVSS
VL: VVLMTQTPLSLPVSLGDQASISCRSSQSLVHSNGNTYLHWYLQKPGQSPKLLIYKVSNRFSGVPDRFSGSGSGTDFTLKISRVEAEDLGVYFCFQSTHVPLTFGAGTKLELK
For B10, in experiment [5], the Kd was 28.9 nM. Also, in experiment [6], the “Peak 1/Peak 2 Ratio (ELISA)” value is 18.

B11: murine anti-ADDL monoclonal antibody 3B3 (antibody, mouse IgG1, V domains shown)
VH: DVQLVESGGGLVQPGGSRKLSCAASGFTFSSFGMHWVRQAPEKGLEWVAYISRGSSTIYYADTVKGRFTISRDNPKNTLFLQMTSLRSEDTAMYYCARGITTALDYWGQGTSVTVSS
VL: DVLMTQTPLSLPVSLGDQASISCRSSQSIVHSNGNTYLEWYLQKPGQSPKLLIYKASNRFSGVPDRFSGSGSGTDFTLKISRVEAEDLGVYYCFQGSHVPPTFGGGTKLEIK
The molecule B11 had a Kd in experiment [5] of 7.21 nM.

B12: murine anti-ADDL monoclonal antibody 1F4 (antibody, mouse IgG1, V domains shown)
VH: DVQLVESGGGLVQPGGSRKLSCAASGFTFSSFGMHWVRQAPEKGLEWVAYISSVSSTIYYADTVKGRFTISRDNPKNTLFLQMTSLRSEDTAMYYCARSGYGSSYGYGMDYWGQGTLVTVSS
VL: DVLMTQTPLSLPVSLGDQASISCRSSQSIVHSNGNTYLEWYLQKPGQSPKLLIYKVSNRFSGVPDRFSGSGSGTDFTLKISRVEAEDLGVYYCFQGSHVPLTFGAGTKLELK
As to B12, the Kd was found to be 9.24 nM in experiment [7] and 12.5 nM in experiment [5].

B13: murine anti-ADDL monoclonal antibody 4C2 (antibody, mouse IgG1, V domains shown)
VH: QVTLKESGPGILKPSQTLSLTCSFSGFSLSTSGMGVGWIRQPSGKGLEWLAHIWWDDDKYYNPSLKSQLTISKDTSRNQVFLKITSVDTADTATYYCARRSITTVVPEDYFAYWGQGTTLTVSS
VL: DVLMTQSPLSLPVSLGDQASISCRSSQSIVHSNGNTYLEWYLQKPGQSPKLLIYKVSNRFSGVPDRFSGSGSGTDFTLKISRVEAEDLGVYYCFQGSHVPLTFGAGTKLELK
Turning to B13, in experiment [5], the affinity, expressed as Kd, was 19.2 nM. For the same molecule, the binding result in experiment [8] is “binds”. In addition, in experiment [6], the “Peak 1/Peak 2 Ratio (ELISA)” value amounted to 18.

B14: murine anti-ADDL monoclonal antibody 2D6 (antibody, mouse IgG1, V domains shown)
VH: QVTLKESGPGILKPSQTLSLTCSFSGFSLSTSGMGVGWIRQPSGKGLEWLAHIWWDDDKYYNPSLKSQLTISKDTSRNQVFLKITSVDTADTATYYCARRSISTVIPEDYFDYWGQGTILTVSS
VL: DVLMTQTPLSLTVSLGDQASISCRSSQSIVHSNGNTYLEWYLQKPGQSPKLLIYKVSNRFSGVPDRFSGSGSGTDFTLKISRVEAEDLGVYYCFQGSHVPLTFGAGTKLELK
Molecule B14 yielded a Kd in experiment [5] of 14.4 nM. Moreover, in experiment [6], the “Peak 1/Peak 2 Ratio (ELISA)” value was determined as 19.

B15: humanized 2H4, CDR grafted, IgG1/kappa (antibody, V domains shown)
VH: EVQLVESGGGLVQPGGSLRLSCAASGFTFSSFGMHWVRQAPGKGLEWVAYIRSGSSTIYYADTVKGRFTISRDNSKNTLYLQMNSLRAEDTAVYYCARGGNYYGSSRFAYWGQGTLVTVSS
VL: DIQMTQSPSSLSASVGDRVTITCKASQDINSYLSWFQQKPGKAPKTLIYRANRFVDGVPSRFSGSGSGTDYTLTISSLQPEDFATYFCLQYDEFPLTFGGGTKVEIKR
notes: also called 2H4 (humanized)
Turning to B15, the binding result in experiment [1] is “binds”.
